Ends that are not written are not given here.

The values that follow come from US20040106557A1 (LICENTIA, published 2004).

B1: phage-displayed peptide Z-3 (fUSE5 phage clone) (peptide)
chain: CVQYCIGGDCWFC
modifications: cysteine pairing not given here; also: displayed on fUSE5 phage protein III
notes: isolated with 200 µM ZnCl2; not shown: fUSE5 phage protein III and flanking residues
B2: phage-displayed peptide Z-4 (fUSE5 phage clone) (peptide)
chain: CVVYCDSMKCWTC
modifications: cysteine pairing not given here; also: displayed on fUSE5 phage protein III
notes: as for B1
B3: phage-displayed peptide Z-6 (fUSE5 phage clone) (peptide)
chain: CVWYTGNTWC
modifications: not fully specified; cysteine pairing not given here; also: displayed on fUSE5 phage protein III with flanking residues
notes: as for B1
B4: phage-displayed peptide Z-11 (fUSE5 phage clone) (peptide)
chain: CMFDPMYMWMTC
modifications: cysteine pairing not given here; also: displayed on fUSE5 phage protein III with flanking residues
notes: as for B1
B5: phage-displayed peptide Z-1 (fUSE5 phage clone) (peptide)
chain: CVTYCYGEVCYYC
notes: isolated with 200 µM ZnCl2 in the panning buffer; not shown: fUSE5 phage protein III and flanking residues
B6: phage-displayed peptide Z-7 (fUSE5 phage clone) (peptide)
chain: CVFDALYTFC
modifications: cysteine pairing not given here; also: displayed on fUSE5 phage protein III with flanking residues
notes: as for B1
B7: phage-displayed peptide Z-8 (fUSE5 phage clone) (peptide)
chain: CVIYPGNVWC
modifications: cysteine pairing not given here; also: displayed on fUSE5 phage protein III with flanking residues
notes: as for B1
B8: phage-displayed peptide Z-5 (fUSE5 phage clone) (peptide)
chain: CVAYCISSLCYYC
modifications: cysteine pairing not given here; also: displayed on fUSE5 phage protein III
notes: as for B1
B9: phage-displayed peptide Z-2 (fUSE5 phage clone) (peptide)
chain: CAAYCVAGLCYGC
modifications: cysteine pairing not given here; also: displayed on fUSE5 phage protein III
notes: as for B1
B10: phage-displayed peptide Z-10 (fUSE5 phage clone) (peptide)
chain: CVPYLGLWLC
modifications: cysteine pairing not given here; also: displayed on fUSE5 phage protein III with flanking residues
notes: as for B1
B11: Tc99m-labeled C4 (peptide)
peptide: CVAYCIEHHCWTC
modifications: also: 99mTc chelated between thiol sulfurs of reduced peptide
B12: GST-C-4 (peptide C-4 expressed as glutathione S-transferase fusion protein) (other)
chain: CVAYCIEHHCWTC
B13: phage-displayed peptide C-2 (fUSE5 phage clone) (peptide)
chain: CVEYCWEGSCYVC
notes: not shown: fUSE5 phage protein III and flanking residues
B14: phage-displayed peptide D-1 (fUSE5 phage clone) (peptide)
chain: CLSTCAQSCRISC
notes: as for B13
B15: phage-displayed peptide A-3 (fUSE5 phage clone) (peptide)
chain: CIFEPDYSYC
notes: as for B13
B16: phage-displayed peptide A-4 (fUSE5 phage clone) (peptide)
chain: CVFDDLYSFC
notes: as for B13
B17: phage-displayed peptide C-5 (fUSE5 phage clone) (peptide)
chain: CVSYCDGLQCWMC
notes: as for B13
B18: phage-displayed peptide A-1 (fUSE5 phage clone) (peptide)
chain: CVFTSDYAFC
notes: as for B13
B19: phage-displayed peptide C-4 (fUSE5 phage clone) (peptide)
chain: CVAYCIEHHCWTC
notes: as for B13
B20: phage-displayed peptide C-3 (fUSE5 phage clone) (peptide)
chain: CVAYCEEWECYVC
notes: as for B13
B21: phage-displayed peptide A-2 (fUSE5 phage clone) (peptide)
chain: CVIYDGNHWC
notes: as for B13
B22: phage-displayed peptide B-3 (fUSE5 phage clone) (peptide)
chain: CRFDKEYRTLVC
notes: as for B13
B23: phage-displayed peptide B-2 (fUSE5 phage clone) (peptide)
chain: CVFAHNYDYLVC
notes: as for B13
B24: phage-displayed peptide D-2 (fUSE5 phage clone) (peptide)
chain: CLLYCHDACWWVC
notes: as for B13
B25: phage-displayed peptide B-1 (fUSE5 phage clone) (peptide)
chain: CTFSVDYKYLMC
notes: as for B13
B26: phage-displayed peptide C-1 (fUSE5 phage clone) (peptide)
chain: CVSYCLFEFCYVC
notes: as for B13

One experiment concerns the target T1, Prostate specific antigen (PSA), purified from human seminal fluid (human, UniProt P07288 25-261).
T1 construct: mature; Mostly captured on wells by MAb 5E4 (IFMA) or on the chip by MAb H117 (SPR); in solution in enzyme assays; also called free PSA; active PSA
As to the kind of experiment: phage display selection on PSA captured by MAb 5E4, 200 µM ZnCl2 in the panning buffer. On the procedure:
(§1) The screening of phage display peptide libraries was performed essentially as described by Koivunen et al. (21). Briefly, each phage library was separately screened with PSA captured on microtiter wells coated with the monoclonal antibody 5E4, which binds both free and complexed PSA (24). 33 nM PSA in TBS buffer containing 10 g/L BSA (BSA-TBS) was incubated in wells coated with MAb 5E4 for 1 h, then the wells were washed to remove unbound PSA. An aliquot of each phage library ([…] infectious particles) was added to the wells, and incubated for 3 h at 22° C. during the first round of panning and for 1 h during subsequent rounds. The phage solution was removed and the wells were washed with TBS containing 0.5% Tween 20. The panning was also performed in the prescence of 200 μM ZnCl2. The bound phage were eluted with 0.1 M glycine buffer, pH 2.2 and neutralized with 1 M Tris base. The eluted phage were amplified by infection of E. coli K91 kan cells, and purified by precipitation with polyethylene glycol. After three rounds of selection and amplification single stranded DNA from individual phage clones was prepared and the peptide sequences were determined by sequencing the relevant part of the viral DNA. Sequencing was performed with an ABI 310 Genetic analyzer and Dye Terminator Cycle Sequencing Core Kit (PE Applied Biosystems, Foster City, Calif., USA) using the oligonucleotide 5′ […] 3′ as a primer.
With B1, the binding result is listed as “binds”.

Turning to B2, the binding result is “binds”.

Turning to B3, the binding result was “binds”.

For the molecule B4, the binding result was “binds”.

Regarding B5, the binding result is “binds”.

As to B6, the binding result is recorded as “binds”.

As for B7, the binding result was “binds”.

With B8, the binding result was “binds”.

Turning to B9, the binding result is listed as “binds”.

With B10, the binding result was “binds”.

A further experiment deals with T1, Prostate specific antigen (PSA), …. As to the kind of experiment: cell-based or functional assay.
For B11, the “decrease in PSA enzyme activity (S-2586, A405), 30-fold molar excess of peptide” value was roughly 50%.

For another experiment the target is unchanged. As to the kind of experiment: GST-peptide IFMA, PSA captured by MAb 5E4, Eu-labelled anti GST tracer.
As to B12, the “Maximal binding (CPS)” value was found to be 790000 CPS.

For another experiment the target is unchanged. As to the kind of experiment: cell-based or functional assay. The source holds these as a separate data set.
As for B12, the “50% stimulation” value is 0.57 µM.

A further experiment has the same target. As to the kind of experiment: phage display, three rounds of selection on PSA captured by MAb 5E4. The protocol: as §1
For B13, the binding result is “binds”.

For B14, the binding result is given as “binds”.

As to B15, the binding result is “binds”.

B16: the binding result was “binds”.

Consider B17, for which the binding result is given as “binds”.

In the case of B18, the binding result was “binds”.

As for B19, the binding result is on record as “binds”.

Turning to B20, the binding result is recorded as “binds”.

As to B21, the binding result is listed as “binds”.

Consider B22, for which the binding result was “binds”.

Take B23: the binding result is listed as “binds”.

As for B24, the binding result is recorded as “binds”.

Consider B25, for which the binding result is recorded as “binds”.

Take B26: the binding result is on record as “binds”.
